Publication PMC7351214

Tests used:
[1] = target: C5b6 complex generated on convertase-labelled E. coli from C5 and C6 (human) (UniProt P01031)
[2] = target: C5b6 complex generated on convertase-labelled E. coli from C5 and C6 (human) (UniProt P01031); remark: listed apart in the source
[3] = target: C5b6 complex generated on convertase-labelled E. coli from C5 and C6 (human) (UniProt P01031); remark: listed apart in the source

Sequence of UniProt P01031 (P01031 19-673, chain 1 of 3): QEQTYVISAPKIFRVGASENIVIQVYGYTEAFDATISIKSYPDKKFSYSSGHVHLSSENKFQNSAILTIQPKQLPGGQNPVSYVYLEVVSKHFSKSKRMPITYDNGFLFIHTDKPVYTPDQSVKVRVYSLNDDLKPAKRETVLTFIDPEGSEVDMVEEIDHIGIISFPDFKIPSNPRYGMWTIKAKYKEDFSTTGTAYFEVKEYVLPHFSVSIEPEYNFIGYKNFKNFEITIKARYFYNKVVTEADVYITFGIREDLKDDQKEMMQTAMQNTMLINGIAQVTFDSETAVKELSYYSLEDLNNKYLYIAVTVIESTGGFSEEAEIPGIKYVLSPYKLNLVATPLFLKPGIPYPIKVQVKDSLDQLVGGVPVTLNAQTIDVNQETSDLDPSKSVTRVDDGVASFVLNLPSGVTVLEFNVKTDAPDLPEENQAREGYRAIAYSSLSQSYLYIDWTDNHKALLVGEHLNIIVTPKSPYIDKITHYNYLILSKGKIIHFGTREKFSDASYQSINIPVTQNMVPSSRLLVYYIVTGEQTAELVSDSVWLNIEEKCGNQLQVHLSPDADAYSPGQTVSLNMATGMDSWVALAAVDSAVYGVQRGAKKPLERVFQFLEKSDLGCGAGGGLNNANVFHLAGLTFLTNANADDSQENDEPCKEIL
Sequence of UniProt P01031 (P01031 752-1676, chain 2 of 3): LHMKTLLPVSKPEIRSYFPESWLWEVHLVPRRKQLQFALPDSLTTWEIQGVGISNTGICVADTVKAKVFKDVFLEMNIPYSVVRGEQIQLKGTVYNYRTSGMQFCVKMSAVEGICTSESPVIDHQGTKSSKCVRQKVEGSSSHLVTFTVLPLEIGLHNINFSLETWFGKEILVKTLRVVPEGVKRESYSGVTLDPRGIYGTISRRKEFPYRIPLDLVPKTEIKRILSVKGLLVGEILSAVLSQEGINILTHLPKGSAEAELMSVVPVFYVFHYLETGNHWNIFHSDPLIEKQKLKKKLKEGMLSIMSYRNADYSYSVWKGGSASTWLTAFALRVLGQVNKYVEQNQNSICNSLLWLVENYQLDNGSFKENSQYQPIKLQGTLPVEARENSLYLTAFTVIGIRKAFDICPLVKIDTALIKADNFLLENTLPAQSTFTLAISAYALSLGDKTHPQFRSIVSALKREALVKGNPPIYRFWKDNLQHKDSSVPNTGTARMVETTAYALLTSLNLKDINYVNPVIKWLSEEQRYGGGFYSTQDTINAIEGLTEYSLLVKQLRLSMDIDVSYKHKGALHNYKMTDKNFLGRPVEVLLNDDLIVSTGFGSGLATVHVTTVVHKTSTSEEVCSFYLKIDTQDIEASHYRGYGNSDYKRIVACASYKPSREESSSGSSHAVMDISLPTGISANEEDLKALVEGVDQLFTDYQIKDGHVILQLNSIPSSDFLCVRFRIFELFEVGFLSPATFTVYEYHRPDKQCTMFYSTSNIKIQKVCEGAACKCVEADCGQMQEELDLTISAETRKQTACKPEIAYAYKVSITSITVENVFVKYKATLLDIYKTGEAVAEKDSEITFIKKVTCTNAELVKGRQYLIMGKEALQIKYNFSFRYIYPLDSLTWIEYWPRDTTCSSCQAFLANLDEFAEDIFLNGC
Sequence of UniProt P01031 (P13671 22-934, chain 3 of 3, further chain): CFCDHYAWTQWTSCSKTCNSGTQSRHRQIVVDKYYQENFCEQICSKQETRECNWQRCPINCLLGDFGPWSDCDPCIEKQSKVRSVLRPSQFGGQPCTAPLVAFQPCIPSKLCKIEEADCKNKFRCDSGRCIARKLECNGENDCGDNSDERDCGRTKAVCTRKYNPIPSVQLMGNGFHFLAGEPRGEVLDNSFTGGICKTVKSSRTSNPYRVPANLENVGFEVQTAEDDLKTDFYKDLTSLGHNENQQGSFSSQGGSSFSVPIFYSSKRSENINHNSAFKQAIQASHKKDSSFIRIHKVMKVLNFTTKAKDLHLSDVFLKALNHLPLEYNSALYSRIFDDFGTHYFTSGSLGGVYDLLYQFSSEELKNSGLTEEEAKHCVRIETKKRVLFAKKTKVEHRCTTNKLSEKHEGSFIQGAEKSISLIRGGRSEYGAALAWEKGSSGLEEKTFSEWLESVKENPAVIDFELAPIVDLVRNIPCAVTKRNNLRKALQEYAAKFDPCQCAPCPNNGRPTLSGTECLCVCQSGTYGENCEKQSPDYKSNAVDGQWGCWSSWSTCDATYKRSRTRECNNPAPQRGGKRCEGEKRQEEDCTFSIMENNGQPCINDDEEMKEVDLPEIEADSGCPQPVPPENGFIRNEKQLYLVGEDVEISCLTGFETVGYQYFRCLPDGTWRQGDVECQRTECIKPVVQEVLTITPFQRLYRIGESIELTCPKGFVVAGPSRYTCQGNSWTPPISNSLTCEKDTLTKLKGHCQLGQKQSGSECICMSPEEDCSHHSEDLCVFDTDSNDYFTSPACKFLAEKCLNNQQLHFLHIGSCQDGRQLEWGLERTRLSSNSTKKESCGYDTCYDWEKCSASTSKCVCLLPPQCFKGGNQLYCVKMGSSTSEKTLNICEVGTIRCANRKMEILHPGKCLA

- deposition of C6-Cy5 (geoMFI) on convertase-labelled E. coli MG1655 after 60 minutes, C5b6 generated in the presence of C7 against in its absence [2]: 10 fold
- deposition of C9-Cy5 (geoMFI) on E. coli MG1655, C5b6 generated in the absence of C7 against in the presence of C7 [3]: 50 fold
- fluorescence ratio C9:C6 on E. coli MG1655, C5b6 generated in the presence of C7 against in the absence of C7 [3]: 10 fold
Substance: His-tagged complement component C7 (from UniProt P10643 23-843) (natural protein)
- percentage of Sytox positive (inner membrane damaged) E. coli MG1655 after addition of C8 and C9; C7 present from t = 0 (~100%) or added 60 minutes after C5b6 generation was initiated (~6%) [1]: 100%
